According to publication PMC11124013, “Substrate Affinity Is Not Crucial for Therapeutic L-Asparaginases: Antileukemic Activity of Novel Bacterial Enzymes” (Molecules, 2024):

Columns and labels:
purified protein [1] = substrate: COC(=O)[C@H](Cc1ccccc1)NC(=O)C[C@H](N)C(=O)O; experiment: purified protein; format: biochemical, Escherichia coli; settings: PBS pH 7.4, 37 °C, 600 µM α-ketoglutarate, 190 µM NADH
Nessler ammonia assay [2] = substrate: NC(=O)C[C@H](N)C(=O)O; experiment: Nessler ammonia assay; format: biochemical, Escherichia coli; settings: PBS pH 7.4, 37 °C
Excerpt: Nessler ammonia assay on EcAIII

[3] = substrate: NC(=O)C[C@H](N)C(=O)O; experiment: ITC single-injection method; format: biochemical, Escherichia coli; settings: PBS pH 7.4, 37 °C
Excerpt: ITC single-injection method on EcAII

Nessler ammonia assay [4] = substrate: NC(=O)C[C@H](N)C(=O)O; experiment: Nessler ammonia assay; format: biochemical, Rhizobium etli; settings: PBS pH 7.4, 37 °C
Excerpt: Nessler ammonia assay on ReAV

purified protein [5] = substrate: NC(=O)C[C@H](N)C(=O)O; experiment: purified protein; settings: PBS pH 7.4, 37 °C

B1: EcAIII (Escherichia coli K-12) (protein)
chain 1: GKAVIAIHGGAGAISRAQMSLQQELRYIEALSAIVETGQKMLEAGESALDVVTEAVRLLEECPLFNAGIGAVFTRDETHELDACVMDGNTLKAGAVAGVSHLRNPVLAARLVMEQSPHVMMIGEGAENFAFARGMERVSPEIFSTSLRYEQLLAARKEGATVLDHSGAPLDEKQKMG
chain 2: TVGAVALDLDGNLAAATSTGGMTNKLPGRVGDSPLVGAGCYANNASVAVSCTGTGEVFIRALAAYDIAALMDYGGLSLAEACERVVMEKLPALGGSGGLIAIDHEGNVALPFNTEGMYRAWGYAGDTPTTGIYREKGDTVATQ
notes: synthetic gene, N-terminal 6xHis-tag (pET28a or pMSCG92), expressed in E. coli BL21 Gold (DE3); precursor self-matures into alpha and beta subunits, (alpha-beta)2 heterotetramer
Purified protein [1]
  Km: 3.57 ± 0.58 mM
  kcat: 0.112 ± 0.007 s⁻¹
  kcat/Km: 31 ± 7 M⁻¹ s⁻¹
Nessler ammonia assay [2]
  Km: 17.66 ± 1.87 mM
  kcat: 5.77 ± 0.19 s⁻¹
  kcat/Km: 330 ± 100 M⁻¹ s⁻¹

B2: EcAII (Escherichia coli K-12) (protein)
chain: LPNITILATGGTIAGGGDSATKSNYTVGKVGVENLVNAVPQLKDIANVKGEQVVNIGSQDMNDNVWLTLAKKINTDCDKTDGFVITHGTDTMEETAYFLDLTVKCDKPVVMVGAMRPSTSMSADGPFNLYNAVVTAADKASANRGVLVVMNDTVLDGRDVTKTNTTDVATFKSVNYGPLGYIHNGKIDYQRTPARKHTSDTPFDVSKLNELPKVGIVYNYANASDLPAKALVDAGYDGIVSAGVGNGNLYKSVFDTLATAAKTGTAVVRSSRVPTGATTQDAEVDDAKYGFVASGTLNPQKARVLLQLALTQTKDPQQIQQIFNQY
notes: synthetic gene, N-terminal 6xHis-tag (pET28a or pMSCG92), expressed in E. coli BL21 (DE3) deltaansA/deltaansB; tetramer
[3]
  Km: 0.012 ± 0.002 mM
  kcat: 39 ± 1 s⁻¹
  kcat/Km: 3.3e+06 ± 561000 M⁻¹ s⁻¹

B3: ReAV (Rhizobium etli CFN 42) (protein)
chain: MTPSEDFVVTDRGGIVENSHRVHAAVVDAKGRLLYALGNPTRMTLARSAAKPAQALAILETEGVAGYGFDDADIALMCASHSSEDRHIARTRAMLSKIKAEEADLRCGGHPSLSEMVNRSWIKQDFIPTAVCSNCSGKHVGMLAGARAIGAGTDGYHLPDHPMQGRVKRTVAELCDLDAGDVEWGTDGCNLPTPAFPLDRLGRIYAKLASAADGSDAGEGQSTRCAALAHIFRAMARHPEMVAGEGRYCTMLMRAFDGALVGKLGADASYAIGVRASDATRQLGTDGALGISVKIEDGNLEMLYAVVTELLERLGIGSPDVRSQLASFHHPQRVNTMGVTTGGVSFPFKLRGSKSNVDDPRLAAVAR
notes: gene in pET151D-TOPO, 6xHis-tagged, expressed in E. coli BL21 Gold (DE3); homodimer, Zn in active site
Nessler ammonia assay [4]
  Km: 24.81 ± 3.22 mM
  kcat: 28.5 ± 1.6 s⁻¹
  kcat/Km: 1150 ± 210 M⁻¹ s⁻¹

B4: ReAIV (Rhizobium etli CFN 42) (protein)
chain: MTNPVTVEVTRGLLVESRHRGAVAVVDGDGKLFFSLGDIDTAVFPRSACKAMQALPLVESGAADAYGFGDKELALACASHNGEEEHVALAASMLSRAGRNVEALECGAHWSMNQKVLIQQARSLDAPTALHNNCSGKHAGFICACCHRDIDPKGYVGYEHPLQVEIRAVMERLTGAVLGAESCGTDGCSIPTYAMPLRNLAHGFARMATGTGLEPLRAKASRRLIEACMAEPFYVAGSGRACTKLMQIAPGRIFVKTGAEGVFCAAIPEKGIGISLKSEDGATRAAEAMVAATLARFFETEETVHAALMAFAAMPMRNWNGIHVGDIRATSVFSA
Purified protein [5]
  Km: 7.16 ± 2.03 mM
  kcat: 9.98 s⁻¹
  kcat/Km: 1390 M⁻¹ s⁻¹
